According to patent publication US20110251266A1:

Target: Human NGF (manufactured by R&D Systems) (human) (UniProt P01138)
Experiment: cell-based or functional assay

Sequence of Human NGF (manufactured by R&D Systems) (human) (P01138 122-241 limits assumed): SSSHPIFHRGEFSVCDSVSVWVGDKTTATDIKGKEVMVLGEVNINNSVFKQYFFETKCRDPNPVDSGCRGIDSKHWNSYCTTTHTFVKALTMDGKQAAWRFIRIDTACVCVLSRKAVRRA

inhibitory activity (neurite outgrowth of PC-12 cells): > 50%
Substance: anti-NGF antibody (MAB2561, R&D Systems)
